Test [1] concerns the target T1, human GUCY2C (human, UniProt P25092 24-1073).
T1 construct: whole, on cells; also called huGUCY2C; guanylate cyclase 2C
In words: flow cytometry on T84 cells, 1 hour at 37 °C.

For test [2], the target named is T2, cynomolgus monkey CD3 (cynomolgus monkey, UniProt Q95LI5 22-198).
T2 construct: whole, on cells; also called cyno CD3; NHP CD3
Description: not described.

Test [3] concerns the target T1, human GUCY2C. Description: cell-based or functional assay.
In test [4] the target is T3, Human CD3 epsilon (human, UniProt P07766 23-207).
T3 construct: Stood on human T cells (pan-T cells, isolated donor T cells) as part of the TCR/CD3 complex; the other chains of the complex are not written here; also called CD3ε; CD3R
T3 sequence (P07766 23-207 limits assumed): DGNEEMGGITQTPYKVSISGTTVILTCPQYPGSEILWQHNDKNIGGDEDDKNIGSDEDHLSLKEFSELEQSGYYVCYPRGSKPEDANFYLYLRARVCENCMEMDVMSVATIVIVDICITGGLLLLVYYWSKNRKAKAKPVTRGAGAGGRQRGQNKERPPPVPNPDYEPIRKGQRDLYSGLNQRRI
In words: flow cytometry on primary T cells, 1 hour at 37 °C.

T1 sequence (P25092 24-1073): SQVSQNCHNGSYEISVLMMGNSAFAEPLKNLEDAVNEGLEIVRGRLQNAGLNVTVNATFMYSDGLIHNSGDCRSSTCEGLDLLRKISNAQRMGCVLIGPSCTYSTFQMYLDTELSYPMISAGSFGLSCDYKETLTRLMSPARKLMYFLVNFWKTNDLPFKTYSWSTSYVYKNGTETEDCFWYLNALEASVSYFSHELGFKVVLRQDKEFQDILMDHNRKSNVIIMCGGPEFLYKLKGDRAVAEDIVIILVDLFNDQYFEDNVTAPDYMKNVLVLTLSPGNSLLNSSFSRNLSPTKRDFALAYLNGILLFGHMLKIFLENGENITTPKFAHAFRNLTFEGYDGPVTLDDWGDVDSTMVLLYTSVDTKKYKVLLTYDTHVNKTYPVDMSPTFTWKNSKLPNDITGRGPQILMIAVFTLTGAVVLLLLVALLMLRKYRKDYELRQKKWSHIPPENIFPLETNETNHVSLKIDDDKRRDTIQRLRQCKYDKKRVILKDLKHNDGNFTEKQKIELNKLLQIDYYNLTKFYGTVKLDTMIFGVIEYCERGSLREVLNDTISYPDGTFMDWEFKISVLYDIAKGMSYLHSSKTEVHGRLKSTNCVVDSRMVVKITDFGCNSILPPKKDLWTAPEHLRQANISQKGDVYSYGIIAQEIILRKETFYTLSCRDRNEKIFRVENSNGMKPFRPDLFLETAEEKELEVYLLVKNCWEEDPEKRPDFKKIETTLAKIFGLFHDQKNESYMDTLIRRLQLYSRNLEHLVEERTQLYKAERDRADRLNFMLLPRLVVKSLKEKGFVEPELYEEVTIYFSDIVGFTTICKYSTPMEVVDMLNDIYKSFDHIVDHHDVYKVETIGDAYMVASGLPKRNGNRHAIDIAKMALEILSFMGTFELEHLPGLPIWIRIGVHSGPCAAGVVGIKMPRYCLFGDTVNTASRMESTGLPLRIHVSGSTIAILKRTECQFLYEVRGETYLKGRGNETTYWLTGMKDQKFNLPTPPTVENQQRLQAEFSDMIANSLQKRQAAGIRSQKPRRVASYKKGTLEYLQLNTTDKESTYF
T2 sequence (Q95LI5 22-198): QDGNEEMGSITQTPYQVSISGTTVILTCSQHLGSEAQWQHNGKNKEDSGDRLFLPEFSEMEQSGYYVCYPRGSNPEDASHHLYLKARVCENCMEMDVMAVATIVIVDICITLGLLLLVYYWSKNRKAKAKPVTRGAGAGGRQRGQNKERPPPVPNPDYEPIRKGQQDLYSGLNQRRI

B1: GUCY2C×CD3_biAb-1 (bispecific antibody, human IgG1, kappa, L234A L235A)
heavy: QVQLQESGPGLVKPSETLSLTCTVSGASISHYYWSWIRRPAGKGLEWIGRIYTSGSTNYNPSLKSRVTVSVDTSKNQFSLKLSSVTAADTAVYYCARDRYTGYFDLWGRGTLVTVSSASTKGPSVFPLAPSSKSTSGGTAALGCLVKDYFPEPVTVSWNSGALTSGVHTFPAVLQSSGLYSLSSVVTVPSSSLGTQTYICNVNHKPSNTKVDKKVEPKSCDKTHTCPPCPAPEAAGGPSVFLFPPKPKDTLMISRTPEVTCVVVSVSHEDPEVKFNWYVDGVEVHNAKTKPREEQYNSTYRVVSVLTVLHQDWLNGKEYKCKVSNKALPAPIEKTISKAKGQPREPQVYTLPPSREEMTKNQVSLSCAVKGFYPSDIAVEWESNGQPENNYKTTPPVLDSDGSFFLVSKLTVDKSRWQQGNVFSCSVMHEALHNRFTQKSLSLSPGK
light: not shown
chain: EIVLTQSPATLSASPGERVTLSCSASSSVSYMNWYQQKPGCAPRRWIYDSSKLASGVPARFSGSGSGRDYTLTISSLEPEDFAVYYCQQWSRNPPTFGGGTKVEIKGGGSGGSGGCPPCGGSGGQVQLVQSGAEVKKPGSSVKVSCKASGYTFTRSTMHWVKQAPGQGLEWIGYINPSSAYTNYNQKFQGRVTLTADKSTSTAYMELSSLRSEDTAVYYCASPQVHYDYAGFPYWGCGTLVTVSSEPKSSDKTHTCPPCPAPEAAGGPSVFLFPPKPKDTLMISRTPEVTCVVVSVSHEDPEVKFNWYVDGVEVHNAKTKPREEQYNSTYRVVSVLTVLHQDWLNGKEYKCKVSNKALPAPIEKTISKAKGQPREPQVYTLPPSREEMTKNQVSLWCLVKGFYPSDIAVEWESNGQPENNYKTTPPVLDSDGSFFLYSKLTVDKSRWQQGNVFSCSVMHEALHNHYTQKSLSLSPGK
notes: HC2 = CD3_spFv-1-Fc (knob); IgG1 with L234A/L235A/D265S; also called GUCY2CxCD3 bisp-Ab1; GUCY2C-CD3-bisp-Ab1
Molecule B1 came in with an EC50 in test [1] of 12 nM. Further, the binding result in test [2] is listed as “no binding”. For the same molecule, in test [3], the “Tumor killing EC50 (nM), HT-55” value amounted to 0.8 nM and the “Tumor killing EC50 (nM), LS1034” value amounted to 0.04 nM. This molecule showed an EC50 in test [4] of 108 nM.
